Reference: patent publication US20260242478A1 (published 2026)
Where no end group is shown, it is not given here.

Columns and labels:
[1] = target: T1, Anti-CD28 scFv (VH - linker 1 - VL) (biotinylated (site not stated)); experiment: phage ELISA as above, wells pre-incubated with soluble CD28 (competitor);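 note: ELISA of crude clonal phage supernatants added to wells pre-treated with soluble CD28 in blocking buffer, bound phage read out with HRP-conjugated anti-M13 antibody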
T1 construct: Biotinylated scFv captured on neutravidin coated plates in the panning ELISA
T1 sequence (scFv, as listed by the source): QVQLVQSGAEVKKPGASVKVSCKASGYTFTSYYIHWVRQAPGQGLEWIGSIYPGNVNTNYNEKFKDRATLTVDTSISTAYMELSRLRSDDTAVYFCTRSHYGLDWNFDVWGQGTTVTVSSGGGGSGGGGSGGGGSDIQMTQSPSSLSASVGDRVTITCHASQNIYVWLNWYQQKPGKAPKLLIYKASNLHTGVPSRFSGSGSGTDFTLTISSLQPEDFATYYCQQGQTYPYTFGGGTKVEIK

[2] = target: T1, Anti-CD28 scFv (VH - linker 1 - VL); experiment: phage ELISA; biotinylated anti-CD28 scFv on neutravidin plate, clonal phage supernatant, anti-M13-HRP;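 note: before the phage were added, wells were pre-incubated with soluble CD28 protein in blocking buffer, or with blocking buffer alone, and were not washed in between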
[3] = target: T2, Anti-CD28 scFv (VH - linker 1 - VL) (biotinylated (site not stated)); experiment: phage ELISA; biotinylated anti-CD28 scFv on neutravidin plate, wells pre-incubated with soluble CD28 (competitor), anti-M13-HRP detection;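 note: bound clonal phage detected by peroxidase-labelled anti-M13 antibody, compared against wells given blocking buffer alone without soluble CD28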
T2 construct: Biotinylated scFv captured on neutravidin coated plates in the panning ELISA
T2 sequence (scFv, as listed by the source): as above

[4] = target: T2, Anti-CD28 scFv (VH - linker 1 - VL); experiment: phage ELISA; biotinylated anti-CD28 scFv on neutravidin plate, clonal phage supernatant, anti-M13-HRP detection;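 note: before phage addition, wells were pretreated with soluble CD28 protein in blocking buffer, or with blocking buffer only as the comparison, then phage were added without washing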
Experimental: (§1) Clonal phage were harvested as crude supernatants and screened via standard enzyme linked immunosorbent assays (ELISAs). […] Prior to the addition of clonal phage, wells were incubated with blocking buffer and CD28 soluble protein or blocking buffer alone. Without washing or aspirating, clonal phage supernatants were then added to the wells and incubated for a short time. Wells were then washed followed by detection of bound phage using a horse radish peroxidase conjugated anti-M13 antibody.

[5] = target: T3, Anti-CD28 scFv (VH - linker 1 - VL) (biotinylated (site not stated)); experiment: phage ELISA: biotinylated anti-CD28 scFv on neutravidin plate, clonal phage supernatant, anti-M13-HRP detection;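 note: competition format: before phage supernatant was added, wells were preincubated with soluble CD28 protein or with blocking buffer only, and phage were added without an intervening wash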
T3 construct: Captured as biotinylated scFv on neutravidin plates in the panning ELISA
T3 sequence (scFv, as listed by the source): as above

[6] = target: T3, Anti-CD28 scFv (VH - linker 1 - VL); experiment: phage ELISA as above, wells pre-incubated with soluble CD28 (competitor);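 note: ELISA of crude clonal phage supernatants added to wells pre-treated with soluble CD28 in blocking buffer, bound phage read out with HRP-conjugated anti-M13 antibody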
Experimental: as §1

MDWCPRSLWAQCFY [Phage-364]
CD28 scFv signal in presence of CD28 [1]: 0.14
CD28 scFv signal [2]: 1.39

MDWCPIYLWAECFN (tested as crude phage supernatant) [Phage-299]
CD28 scFv signal in presence of CD28 [3]: 0.307
CD28 scFv signal [4]: 2.45

MDWCPMYMWHKCFH [Phage-415]
CD28 scFv signal [5]: 0.987
CD28 scFv signal in presence of CD28 [6]: 0.168

MDWCPIALWDFCFA (tested as crude phage supernatant) [Phage-288]
CD28 scFv signal in presence of CD28 [3]: 0.492
CD28 scFv signal [4]: 2.52

LHWCPITMWTYCYY [Phage-409]
CD28 scFv signal [5]: 1.21
CD28 scFv signal in presence of CD28 [6]: 0.516

ITWCPTSLWNRCLV [Phage-382]
CD28 scFv signal in presence of CD28 [1]: 0.089
CD28 scFv signal [2]: 0.242

MDWCPRSLWFLCFN (tested as crude phage supernatant) [Phage-281]
CD28 scFv signal in presence of CD28 [3]: 1.77
CD28 scFv signal [4]: 2.71

MHWCPRDLWYECFA [Phage-369]
CD28 scFv signal in presence of CD28 [1]: 0.108
CD28 scFv signal [2]: 0.995

MDWCPRDLWAMCFA (cysteine pairing not given here; also: displayed on phage as fusion to pIII, tested as crude phage supernatant) [Phage-285]
CD28 scFv signal in presence of CD28 [3]: 0.889
CD28 scFv signal [4]: 2.63

MSWCPRFMWHECFN [Phage-411]
CD28 scFv signal [5]: 1.11
CD28 scFv signal in presence of CD28 [6]: 0.246

MDWCPRYLWVDCFA [Phage-372]
CD28 scFv signal in presence of CD28 [1]: 0.218
CD28 scFv signal [2]: 0.917

MHWCPLYLWDECFY [Phage-366]
CD28 scFv signal in presence of CD28 [1]: 0.376
CD28 scFv signal [2]: 1.16

MFWCPKDMWAECFA [Phage-408]
CD28 scFv signal [5]: 1.26
CD28 scFv signal in presence of CD28 [6]: 0.113

MDWCPRYLWDYCFA (tested as crude phage supernatant) [Phage-280]
CD28 scFv signal in presence of CD28 [3]: 0.382
CD28 scFv signal [4]: 2.71

MDWCPRSLWDYCFA (tested as crude phage supernatant) [Phage-294]
CD28 scFv signal in presence of CD28 [3]: 0.235
CD28 scFv signal [4]: 2.49

MHWCPLHLWNECFA [Phage-378]
CD28 scFv signal in presence of CD28 [1]: 0.083
CD28 scFv signal [2]: 0.575

MTWCPAYLWHECFN [Phage-370]
CD28 scFv signal in presence of CD28 [1]: 0.139
CD28 scFv signal [2]: 0.985

MDWCPRHLWTYCFH [Phage-376]
CD28 scFv signal in presence of CD28 [1]: 0.207
CD28 scFv signal [2]: 0.757

MDWCPSDMWSNCFN [Phage-413]
CD28 scFv signal [5]: 1.07
CD28 scFv signal in presence of CD28 [6]: 0.121

MDWCPRYLWHECFF (tested as crude phage supernatant) [Phage-301]
CD28 scFv signal in presence of CD28 [3]: 0.682
CD28 scFv signal [4]: 2.45

MDWCPKFLWDECFA (tested as crude phage supernatant) [Phage-304]
CD28 scFv signal in presence of CD28 [3]: 0.376
CD28 scFv signal [4]: 2.41

LAGCQRDLATVCVI [Phage-383]
CD28 scFv signal in presence of CD28 [1]: 0.116
CD28 scFv signal [2]: 0.229

MDWCPKSLWAECFN (tested as crude phage supernatant) [Phage-308]
CD28 scFv signal in presence of CD28 [3]: 0.162
CD28 scFv signal [4]: 2.38

MDYCPSYLWHECFA [Phage-380]
CD28 scFv signal in presence of CD28 [1]: 0.09
CD28 scFv signal [2]: 0.47

MSWCPPYLWTVCYN [Phage-368]
CD28 scFv signal in presence of CD28 [1]: 0.326
CD28 scFv signal [2]: 1.1

MNWCPIHMWNQCFA [Phage-407]
CD28 scFv signal [5]: 1.37
CD28 scFv signal in presence of CD28 [6]: 0.133

MDWCPRILWSDCFN [Phage-373]
CD28 scFv signal in presence of CD28 [1]: 0.113
CD28 scFv signal [2]: 0.847

MDWCPRDLWFACFA (tested as crude phage supernatant) [Phage-282]
CD28 scFv signal in presence of CD28 [3]: 0.794
CD28 scFv signal [4]: 2.66

QHWCPRDMWNDCYA [Phage-412]
CD28 scFv signal [5]: 1.08
CD28 scFv signal in presence of CD28 [6]: 0.149

MERCPRYLWHMCYS (tested as crude phage supernatant) [Phage-286]
CD28 scFv signal in presence of CD28 [3]: 0.84
CD28 scFv signal [4]: 2.59

LYWCPRDMWAYCYS [Phage-414]
CD28 scFv signal [5]: 1.02
CD28 scFv signal in presence of CD28 [6]: 0.157

MDWCPMFLWHECFN (tested as crude phage supernatant) [Phage-309]
CD28 scFv signal in presence of CD28 [3]: 0.591
CD28 scFv signal [4]: 2.38

MDWCPRYLWHVCFY (tested as crude phage supernatant) [Phage-291]
CD28 scFv signal in presence of CD28 [3]: 1.14
CD28 scFv signal [4]: 2.5

MDWCPRYLWHVCFD (tested as crude phage supernatant) [Phage-302]
CD28 scFv signal in presence of CD28 [3]: 0.31
CD28 scFv signal [4]: 2.44

MDWCPRDLWSVCFS (tested as crude phage supernatant) [Phage-290]
CD28 scFv signal in presence of CD28 [3]: 0.116
CD28 scFv signal [4]: 2.5

MAWCPRILWHQCFN [Phage-381]
CD28 scFv signal in presence of CD28 [1]: 0.129
CD28 scFv signal [2]: 0.322

MDWCPRYLWTECFS (tested as crude phage supernatant) [Phage-303]
CD28 scFv signal in presence of CD28 [3]: 0.329
CD28 scFv signal [4]: 2.42

MDWCPRDLWTECFS (tested as crude phage supernatant) [Phage-305]
CD28 scFv signal in presence of CD28 [3]: 0.174
CD28 scFv signal [4]: 2.4

MNWCPRALWHECFL [Phage-375]
CD28 scFv signal in presence of CD28 [1]: 0.107
CD28 scFv signal [2]: 0.759

MDWCPSFLWYECFN [Phage-367]
CD28 scFv signal in presence of CD28 [1]: 0.104
CD28 scFv signal [2]: 1.13

MNWCPIDMWTECFN [Phage-406]
CD28 scFv signal [5]: 1.4
CD28 scFv signal in presence of CD28 [6]: 0.175

MDWCPRALWDHCFF (tested as crude phage supernatant) [Phage-292]
CD28 scFv signal in presence of CD28 [3]: 0.394
CD28 scFv signal [4]: 2.49

IDWCPRYMWHECFF [Phage-410]
CD28 scFv signal [5]: 1.18
CD28 scFv signal in presence of CD28 [6]: 0.164

MDWCPRYLWPVCFH (tested as crude phage supernatant) [Phage-307]
CD28 scFv signal in presence of CD28 [3]: 0.602
CD28 scFv signal [4]: 2.39

MDWCPRHLWNECFN (tested as crude phage supernatant) [Phage-283]
CD28 scFv signal in presence of CD28 [3]: 0.393
CD28 scFv signal [4]: 2.65

MDWCPRHLWNECFA (tested as crude phage supernatant) [Phage-306]
CD28 scFv signal in presence of CD28 [3]: 0.17
CD28 scFv signal [4]: 2.39

MDWCPRHLWFECFF (tested as crude phage supernatant) [Phage-300]
CD28 scFv signal in presence of CD28 [3]: 0.479
CD28 scFv signal [4]: 2.45

MDWCPRHLWFECFN (tested as crude phage supernatant) [Phage-293]
CD28 scFv signal in presence of CD28 [3]: 0.171
CD28 scFv signal [4]: 2.49

MAWCPLDLWDKCFY [Phage-374]
CD28 scFv signal in presence of CD28 [1]: 0.141
CD28 scFv signal [2]: 0.77

MDWCPFDLWLECFN [Phage-377]
CD28 scFv signal in presence of CD28 [1]: 0.12
CD28 scFv signal [2]: 0.65

MDWCPRNLWAECFS [Phage-379]
CD28 scFv signal in presence of CD28 [1]: 0.08
CD28 scFv signal [2]: 0.538

MDWCPSYLWPVCFN [Phage-365]
CD28 scFv signal in presence of CD28 [1]: 0.131
CD28 scFv signal [2]: 1.18
